Target: single-chain Fv antibody fragment 18B7
Test: not stated; soluble scFv produced in the periplasm of E. coli (Fig. S2A)

Sequence of single-chain Fv antibody fragment 18B7 (scFv) (VH): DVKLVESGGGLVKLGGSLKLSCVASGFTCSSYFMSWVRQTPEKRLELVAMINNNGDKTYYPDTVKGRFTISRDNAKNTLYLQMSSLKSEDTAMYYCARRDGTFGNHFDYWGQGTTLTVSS
Sequence of single-chain Fv antibody fragment 18B7 (scFv) (VL): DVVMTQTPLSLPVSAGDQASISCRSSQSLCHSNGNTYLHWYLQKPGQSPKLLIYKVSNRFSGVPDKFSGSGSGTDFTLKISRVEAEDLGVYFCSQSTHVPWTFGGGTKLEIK

stoichiometry N: 2
Substance: single-chain Fv antibody fragment 18B7 (scFv)
